Test results: patent US20240398942A1, “USE OF ANTI-CD40 ANTIBODY” (CHIA TAI TIANQING PHARMACEUTICAL GROUP CO., LTD., priority 2021, published 2024)

Experiments:
[1] = test system: CD40 signal transduction in 293T-NF-κB-Luc-CD40 cells; experiment: Cell-based reporter assay; set-up: species or system human; details: in words, FIGS. 2A-2C and 7
Description: The agonistic activity of the anti-CD40 antibody of the present application was further determined in a CD40 expression reporter cell line 293T-NF-κB-Luc-CD40, which stably expresses full-length human CD40 (uniprot No. P25942-1, SEQ ID NO: 30). According to the instructions of lipofectamine 3000 transfection reagent (Thermo Fisher), a pGL4.32 [luc2P NF-κB-RE Hygro] vector (Promega, GenBank® Accession No. EU581860) and a pCMV-T-P plasmid (with a CD40 coding sequence inserted between the EcoRI and Khal loci) were transfected into 293T cells in sequence to prepare 293T-NF-κB-Luc-CD40 cells.
Briefly, 293T-NF-κB-Luc-CD40 cells at the log phase were resuspended in DMEM medium (Gibco Inc., Cat. No. 10566-016) containing 10% of FBS (Gibco Inc., Cat. No. 10099-141), and seeded on a 384-well plate (Corning, Cat. No. 3707) at 20 μL/well (containing 5×10^3 cells). Then, the anti-CD40 antibody of the present application or the controls (including an in-house prepared anti-CD22 antibody as a negative control) serially 3-fold diluted from 200 nM in the medium was added at 20 μL per well and incubated at 37° C. for 6 h. […] The chemiluminescence values were measured using Tecan Infinit® 200 Pro. Data were analyzed using Graphpad Prism software, and EC50 values were obtained.

[2] = biological target: binding of the benchmark (BM2) to human CD40 (Homo sapiens, UniProt P25942); experiment: Benchmark blocking competitive ELISA; details: in words, FIG. 6
Sequence of binding of the benchmark (BM2) to human CD40 (P25942 21-193): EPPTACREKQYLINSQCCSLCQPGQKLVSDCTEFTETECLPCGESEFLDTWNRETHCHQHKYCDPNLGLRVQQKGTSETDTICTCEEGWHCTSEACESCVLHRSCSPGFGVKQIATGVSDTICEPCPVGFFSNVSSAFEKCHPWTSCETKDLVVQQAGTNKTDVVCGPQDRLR
Method: The ability of the anti-CD40 antibody of the present application to block the binding of the benchmark to human CD40 was determined by competitive ELISA. Briefly, BM2 antibody was immobilized on a 96-well micro plates at 1 μg/mL in PBS, 100 µL/well, and incubated overnight at 4° C. The next day, the plate was washed once with a washing buffer before a blocking buffer (PBST containing 5% w/v of skim milk) was added. The plate was then incubated at 37° C. for 2 h for blocking. During the blocking of the 96-well plate, the anti-CD40 antibody of the present application or the benchmark was serially 5-fold diluted from 66.7 nM with a biotinylated human CD40-Fc protein (amino acid residues 21-193 of SEQ ID NO: 30 linked to the N terminus of amino acid residues 99-330 of SEQ ID NO: 28, dissolved in PBST containing 2.5% w/v of skim milk at a concentration of 0.23 nM) and then incubated at room temperature for 40 min. After the plate was washed 4 times, the antibody/biotinylated human CD40-Fc mixture was added at 100 μL/well to the plate coated with BM2. The plate was incubated at 37° C. for 40 min and again washed 4 times with the washing buffer. […] The absorbance was read on a microplate reader using the dual wavelength mode (TMB detection wavelength: 450 nm, reference wavelength: 630 nm). […] Data were analyzed using Graphpad Prism software, and IC50 values were obtained.

[3] = test system: human B-cell lymphoma Ramos cells; experiment: Efficacy of anti-CD40 antibody and anlotinib, Ramos subcutaneous xenograft mouse model; type: in vivo
Method: Human B-cell lymphoma Ramos cells (purchased from the Cell Bank of the Chinese Academy of Sciences) were cultured in an RPMI1640 medium containing 10% of fetal bovine serum and penicillin-streptomycin. The cells were inoculated in a 37° C./5% CO2 incubator until the logarithmic growth phase and collected for grafting.
The mice used in this study were NOD-Scid mice (purchased from Shanghai Lingchang Biotechnology Co., Ltd.) aged about 6 weeks and bred in specific pathogen-free conditions in 12/12-hour light/dark cycles. The health status of the animals was monitored daily.
Each mouse was inoculated subcutaneously with 1×10^7 Ramos cells. When the tumor grew to 80-100 mm^3, the mice were divided into groups of 10 according to the tumor volume. The administration regimen is shown in Table 10, with the first dosing day designated as DO. Antibody huC1H1-V2 and IgG2 (Biointron, Cat. No. B107803) were both formulated to desired concentrations with normal saline, and anlotinib dihydrochloride was formulated at desired concentrations with distilled water. At the end of study (D14), the animals were sacrificed by CO2 anesthesia and dissected to give the tumors. The tumors were photographed.
The tumor diameters were measured twice weekly with a vernier caliper. Tumor volume (V)=½×a×b^2, wherein a and b denote length and width, respectively; T/C (%)=(T−T0)/(C−C0)×100, wherein T and C refer to the tumor volumes of the treatment group and the IgG2 control group on day 14, respectively, and TO and C0 refer to the tumor volumes of the treatment group and IgG2 control group on day 0, respectively; the tumor growth inhibition % (TGI %)=100−T/C (%). When the tumor regressed, the tumor growth inhibition % (TGI %)=100−(T−T0)/T0×100. If the tumor volume was smaller than the initial volume, i.e., T<T0 or C<C0, the outcome was defined as partial regression (PR); if the tumors completely disappeared, i.e., the outcome was defined as complete regression (CR).

B1: huC1H1-V1: humanized C1H1 anti-CD40 antibody, VH SEQ ID NO: 20 X1=A, VL SEQ ID NO: 24 X1=K X2=F, human IgG2/κ (antibody, V domains shown)
VH: EVQLVESGGGLVKPGGSLRLSCAASGFTFSNYGISWVRQAPGKGLEWVXSISSGGDNTYYPDNVKGRFTISRDNAKNSLYLQMNSLRAEDTAVYYCARAGEKAMDYWGQGTLVTVSS
VL: EIVLTQSPATLSLSPGERATLSCRASQTINNNLHWYQQKPGQAPRLLIXYASQSISGIPARFSGSGSGTDFTLTISSLEPEDFAVYXCQQFSSWPLTFGGGTKVEIK
modifications: not fully specified; human IgG2/kappa constant regions; VH of huC1H1-V1 to huC1H1-V4; VARIANT 49 X can be A or S; VL of huC1H1-V1 to huC1H1-V4; VARIANT 49 X can be K or Y; VARIANT 87 X can be F or Y
- Agonistic activity (activation of CD40 signal transduction) [1]: higher than those of BM1 and BM2
- Blocking of the binding of human CD40 to BM2 [2]: able to block the binding of human CD40 to BM2

B2: huC1H1-V2: humanized C1H1 anti-CD40 antibody, VH SEQ ID NO: 20 X1=S, VL SEQ ID NO: 24 X1=K X2=F, human IgG2/κ (antibody, V domains shown)
VH: B1 VH
VL: B1 VL
modifications: not fully specified; variable positions X1=S; VL X1=K X2=F; IgG2/kappa constant; VH of huC1H1-V1 to huC1H1-V4; VARIANT 49 X can be A or S; VL of huC1H1-V1 to huC1H1-V4; VARIANT 49 X can be K or Y; VARIANT 87 X can be F or Y
- Agonistic activity (activation of CD40 signal transduction) [1]: higher than those of BM1 and BM2
- Mean tumor volume (mean ± SD) D 0 ([3]; baseline, huC1H1-V2 0.5 mg/kg i.p. once every 2 days × 8, anlotinib dihydrochloride 1 mg/kg intragastric daily × 15): 89.3 ± 0.8 mm^3
- Mean tumor volume (mean ± SD) D 14 ([3]; huC1H1-V2 0.5 mg/kg i.p. once every 2 days × 8, anlotinib dihydrochloride 1 mg/kg intragastric daily × 15): 1546.7 ± 198.5 mm^3
- TGI D 14 (tumor growth inhibition rate) ([3]; huC1H1-V2 0.5 mg/kg i.p., anlotinib dihydrochloride 1 mg/kg intragastric): 58%
- Tolerability (symptoms such as weight loss) ([3]; huC1H1-V2 0.5 mg/kg i.p., anlotinib dihydrochloride 1 mg/kg intragastric, tumor-bearing mice): well tolerated
- T/C D 14 ([3]; vs IgG2 group, huC1H1-V2 0.5 mg/kg i.p., anlotinib dihydrochloride 1 mg/kg intragastric): 42%
- Blocking of the binding of human CD40 to BM2 [2]: able to block the binding of human CD40 to BM2
